± gives the uncertainty stated by the source.
Assay: protein stability index of a GFP-peptide fusion (yeast GPS) (PSI 1-4); higher = more stable; sorted into four equal gates, so the index is relative within each strain
Outline: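 Yeast carrying a pooled library were grown to mid-log phase in leucine-free medium. Each library plasmid expresses Cherry and has a tiled 17-residue yeast protein peptide fused downstream of GFP. Cells were sorted into four equal gates by GFP/Cherry ratio, and plasmids from each gate were PCR-amplified, Illumina-sequenced and assigned to strains by barcode. Summing, across gates, the read frequency times the gate number gave each peptide's protein stability index.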

Row | Sequence | protein stability index (doa10∆) | protein stability index (pdr5∆) | protein stability index (san1∆) | protein stability index (ubr1∆)
1 | LNDLNHLLVQLQKNDVY [REC8] | 2.52 ± 0.051 | 2.48 ± 0.047 | 2.47 ± 0.058 | 2.17 ± 0.042
2 | ISSLIGGFEYFLQPLLL [NUT1] | 1.21 ± 0.058 | 1.27 ± 0.08 | 1.33 ± 0.16 | 1.38 ± 0.19
3 | KASELKLALGIALEGYR [RPN2] | 2.62 ± 0.15 | 2.28 ± 0.18 | – | 2.56 ± 0.097
4 | IDIPLDEQAFYNKDKAE [RPC37] | 3.27 ± 0.18 | 3.38 ± 0.18 | 2.85 ± 0.24 | 3.26 ± 0.14
5 | YHSGRLLIQGPKASSAK [ITC1] | 3.15 ± 0.11 | 3.29 ± 0.078 | 3.2 ± 0.059 | 3.17 ± 0.073
6 | YCSGNIYDFHKMENLMR [YJL039C/NUP192] | 2.77 ± 0.068 | 2.79 ± 0.059 | 2.52 ± 0.05 | 2.73 ± 0.052
7 | LGNSIVKESNNYYSNKS [REC8] | 2.68 ± 0.15 | – | 2.94 ± 0.3 | –
8 | VSADDFVEEQNVYVLPK [PRP8] | 3.44 ± 0.099 | 3.18 ± 0.11 | 3.07 ± 0.12 | 3.32 ± 0.083
9 | EQQPEQPQETEEHHEEE [RPT4] | 3.41 ± 0.084 | 3.28 ± 0.12 | 3.2 ± 0.12 | 3.44 ± 0.1
10 | LRQQYEIELKKLPKVYK [SWI1] | 2.04 ± 0.067 | 1.75 ± 0.066 | 2.22 ± 0.12 | 2.75 ± 0.073
11 | YGYFSVGKRVPIVEDRR [SIR4] | 3.12 ± 0.12 | 2.28 ± 0.1 | 2.16 ± 0.13 | 2.75 ± 0.26
12 | YSSKPYKVDNMTRILPQ [RPN2] | 2.62 ± 0.073 | 2.88 ± 0.072 | 2.62 ± 0.082 | 2.31 ± 0.067
13 | VKLIVMLCTLTGYQNND [YJL039C/NUP192] | 1.89 ± 0.12 | 1.25 ± 0.078 | 1.29 ± 0.17 | 1.25 ± 0.098
14 | DPDLGLDLMFDEVYVQN [YJL039C/NUP192] | 3.06 ± 0.13 | 3.04 ± 0.11 | 2.93 ± 0.11 | 2.85 ± 0.038
15 | TDEALFENVKLLAEYDN [MED4] | 3.02 ± 0.11 | 3.17 ± 0.1 | 3.08 ± 0.088 | 2.87 ± 0.073
16 | DENTSGKISKPRFLNKQ [PRP28] | – | 3.4 ± 0.23 | – | 3.16 ± 0.15
17 | KPGSKPEKTSTELVDGR [SIR3] | 3.16 ± 0.13 | 2.86 ± 0.16 | 3.26 ± 0.089 | 3.27 ± 0.14
18 | IFRGSLIGCIPYSKNAV [YDL088C/ASM4] | 2.18 ± 0.062 | 2.51 ± 0.09 | 2.14 ± 0.13 | 2.19 ± 0.068
19 | ERLMTWKFKSLIEILRL [RRI2] | 2.11 ± 0.054 | 2.01 ± 0.044 | 1.68 ± 0.088 | 2.31 ± 0.032
20 | SKGFVFNSVQKKSRSNL [YAR002W/NUP60] | 3.03 ± 0.2 | – | 2.96 ± 0.17 | –
21 | QDYYIIGANIYQSPTIF [MED6] | 2.33 ± 0.056 | 2.42 ± 0.055 | 2.15 ± 0.07 | 2.46 ± 0.029
22 | TTLHGPGFQLPNRITLT [SRB8] | 2.9 ± 0.099 | 2.84 ± 0.1 | 2.74 ± 0.068 | 2.89 ± 0.061
23 | NHLDELQKKFVTKQSEL [SMC1] | 2.59 ± 0.11 | 3.06 ± 0.14 | 2.35 ± 0.21 | 2.72 ± 0.075
24 | ALPDVVVKGLPDISRAV [RPO31] | 2.85 ± 0.13 | 2.74 ± 0.079 | 2.86 ± 0.072 | 3.08 ± 0.12
25 | IRGSDQAIPKFQMNCYA [RPN2] | 1.27 ± 0.085 | 1.62 ± 0.066 | 1.55 ± 0.13 | 1.47 ± 0.11
26 | AIPLLKVLRKFRVQSQS [NUT1] | 1.69 ± 0.085 | 1.93 ± 0.079 | 1.69 ± 0.11 | 2.5 ± 0.053
27 | NINEVKKASDLVDTPSN [NUT1] | 3.14 ± 0.083 | 2.97 ± 0.085 | 3.23 ± 0.065 | 3.27 ± 0.07

Row | Sequence | protein stability index (doa10∆) | protein stability index (pdr5∆) | protein stability index (san1∆) | protein stability index (ubr1∆)
28 | SALWSSRKGIAFGLGAI [ECM29] | 2.59 ± 0.13 | 2.89 ± 0.094 | 2.2 ± 0.13 | 2.55 ± 0.089
29 | LTSPAFGPHVDVNDVLT [GRR1] | 3.4 ± 0.085 | 3.23 ± 0.062 | 3.35 ± 0.063 | 3.27 ± 0.056
30 | LLRLASKSTSMKLSMPP [POP1] | 2.75 ± 0.064 | 2.76 ± 0.065 | 2.69 ± 0.059 | 2.81 ± 0.049
31 | PIKADKDYSQILKEEFP [RPN5] | 3 ± 0.1 | 2.46 ± 0.079 | 2.18 ± 0.13 | 2.69 ± 0.062
32 | EYALEAVKRGTCAVGVK [PRE6] | 1.93 ± 0.08 | 2.53 ± 0.094 | 2.21 ± 0.13 | 2.92 ± 0.084
33 | ETKWDDADEKSSNLYET [YJR042W/NUP85] | – | 3.22 ± 0.15 | 3.02 ± 0.13 | 3.25 ± 0.097
34 | SAARGLSLVYEIGGSDL [ECM29] | 2.18 ± 0.058 | 1.94 ± 0.065 | 3.33 ± 0.067 | 1.73 ± 0.056
35 | GRSHTRNSTRSSGFNED [REC8] | – | 3.55 ± 0.23 | – | –
36 | AIQLDYSTANEYIIAAI [RPN3] | 2.24 ± 0.058 | 2.09 ± 0.073 | 2.32 ± 0.094 | 2.47 ± 0.056
37 | DSPASNEDDLTVKLTEI [RPO31] | 2.94 ± 0.071 | 3.15 ± 0.068 | 2.97 ± 0.053 | 3.19 ± 0.056
38 | MAKKEGTPKTDSFIFDG [MED4] | 3.43 ± 0.13 | 3.22 ± 0.15 | 2.94 ± 0.17 | 3.28 ± 0.092
39 | MSGSLKSLDKKIAKRRQ [POP3] | 3.19 ± 0.24 | 2.98 ± 0.21 | – | 3.5 ± 0.2
40 | TETFEKPQRTNTLRMKH [RPB2] | 3.05 ± 0.16 | 3.21 ± 0.14 | 3.16 ± 0.1 | 3.05 ± 0.12
41 | VGSPLTVSILQESSSLR [POP8] | 3.21 ± 0.078 | 3.01 ± 0.057 | 3.01 ± 0.063 | 3.1 ± 0.042
42 | ENEEFITFLQTLYIGNT [ECM29] | 2.06 ± 0.055 | 2.42 ± 0.036 | 2.38 ± 0.11 | 2.22 ± 0.066
43 | FTNRIPSKTPEVYMRYR [SWI3] | 2.08 ± 0.052 | 1.88 ± 0.057 | 2.35 ± 0.068 | 2.03 ± 0.054
44 | VVFRDPYKYRLREEIFI [RPL2A] | 2.47 ± 0.12 | 2.66 ± 0.098 | 2.01 ± 0.088 | 2.81 ± 0.087
45 | EKVILVQEQLSKNRIIV [RET1] | 1.63 ± 0.087 | 1.38 ± 0.084 | 1.5 ± 0.11 | 1.37 ± 0.052
46 | FTIDAKPPISDSVFSFG [YLR335W/NUP2] | 3.13 ± 0.054 | 2.75 ± 0.047 | 2.73 ± 0.051 | 2.69 ± 0.042
47 | GASTGNANTGFSFGGTQ [YGL172W/NUP49] | 2.06 ± 0.067 | 2.12 ± 0.054 | 1.58 ± 0.097 | 2.33 ± 0.063
48 | KLYKTPIPIPAFADRLG [PRE10] | 1.5 ± 0.11 | 1.29 ± 0.076 | 1.04 ± 0.18 | 1.46 ± 0.2
49 | FKSTMLQVSEKDLFELE [ARP7] | 1.25 ± 0.089 | 2.49 ± 0.11 | 1.1 ± 0.16 | 1.4 ± 0.098
50 | PYKYRLREEIFIANEGV [RPL2A] | 2.88 ± 0.096 | 2.94 ± 0.085 | 2.29 ± 0.067 | 2.86 ± 0.054
51 | SYLSNSLDTSASTINGA [YML103C/NUP188] | 2.31 ± 0.058 | 1.78 ± 0.063 | 1.76 ± 0.065 | 1.84 ± 0.06
52 | RMRIFASNEVIAKSRYW [RPL20A] | 2 ± 0.049 | 2.57 ± 0.065 | 2.54 ± 0.068 | 2.53 ± 0.035
53 | SQLNIQLSQDEHSQVEQ [SRP72] | 3.17 ± 0.06 | 3.07 ± 0.047 | 3.16 ± 0.048 | 3.05 ± 0.066
54 | QYTQRLSKLEKALDRHE [SRP68] | 2.52 ± 0.046 | 2.65 ± 0.035 | 2.72 ± 0.039 | 2.66 ± 0.037

From the supplement of paper PMC9732359
